Data taken from patent publication US20210388087A1 (Chugai, published 2021).
Changes are numbered by the printed parent chain.

B1: H183/L072 VL S93W (antibody, name in Kabat numbering, V domains shown)
VH: QVQLVESGGGLVQPGRSLRLSCAASGFTFSNAWMHWVRQAPGKGLEWVAQIKDKGNAYAAYYAPSVKGRFTISRDDSKNSIYLQMNSLKTEDTAVYYCHYVHYASASTVLPAFGVDAWGQGTTVTVSS
VL: DIVMTQSPLSLPVTPGEPASISCQASQELVHMNRNTYLHWYQQKPGQAPRLLIYKVSNRFPGVPDRFSGSGSGTDFTLKISRVEAEDVGVYYCAQGTWVPFTFGQGTKLEIK
notes: Dual-Ig
B2: H183/L072 VL T31A (antibody, name in Kabat numbering, V domains shown)
VH: B1 VH
VL: B1 VL with T36A, W98S
notes: Dual-Ig
B3: H183/L072 VL T31D (antibody, name in Kabat numbering, V domains shown)
VH: B1 VH
VL: B1 VL with T36D, W98S
notes: Dual-Ig
B4: H183/L072 VL T31E (antibody, name in Kabat numbering, V domains shown)
VH: B1 VH
VL: B1 VL with T36E, W98S
notes: Dual-Ig
B5: H183/L072 VL T31F (antibody, name in Kabat numbering, V domains shown)
VH: B1 VH
VL: B1 VL with T36F, W98S
notes: Dual-Ig
B6: H183/L072 VL T31I (antibody, name in Kabat numbering, V domains shown)
VH: B1 VH
VL: B1 VL with T36I, W98S
notes: Dual-Ig
B7: H183/L072 VL T31K (antibody, name in Kabat numbering, V domains shown)
VH: B1 VH
VL: B1 VL with T36K, W98S
notes: Dual-Ig
B8: H183/L072 VL T31L (antibody, name in Kabat numbering, V domains shown)
VH: B1 VH
VL: B1 VL with T36L, W98S
notes: Dual-Ig
B9: H183/L072 VL T31M (antibody, name in Kabat numbering, V domains shown)
VH: B1 VH
VL: B1 VL with T36M, W98S
notes: Dual-Ig
B10: H183/L072 VL T31P (antibody, name in Kabat numbering, V domains shown)
VH: B1 VH
VL: B1 VL with T36P, W98S
notes: Dual-Ig
B11: H183/L072 VL T31Q (antibody, name in Kabat numbering, V domains shown)
VH: B1 VH
VL: B1 VL with T36Q, W98S
notes: Dual-Ig
B12: H183/L072 VL T31R (antibody, name in Kabat numbering, V domains shown)
VH: B1 VH
VL: B1 VL with T36R, W98S
notes: Dual-Ig
B13: H183/L072 VL T31S (antibody, name in Kabat numbering, V domains shown)
VH: B1 VH
VL: B1 VL with T36S, W98S
notes: Dual-Ig
B14: H183/L072 VL T31V (antibody, name in Kabat numbering, V domains shown)
VH: B1 VH
VL: B1 VL with T36V, W98S
notes: Dual-Ig
B15: H183/L072 VL T31W (antibody, name in Kabat numbering, V domains shown)
VH: B1 VH
VL: B1 VL with T36W, W98S
notes: Dual-Ig
B16: H183/L072 VL T31Y (antibody, name in Kabat numbering, V domains shown)
VH: B1 VH
VL: B1 VL with T36Y, W98S
notes: Dual-Ig
B17: H183/L072 VL T92A (antibody, name in Kabat numbering, V domains shown)
VH: B1 VH
VL: B1 VL with T97A, W98S
notes: Dual-Ig
B18: H183/L072 VL T92D (antibody, name in Kabat numbering, V domains shown)
VH: B1 VH
VL: B1 VL with T97D, W98S
notes: Dual-Ig

biological target: T1, Human CD137 ECD (human); test: Biacore SPR, vs parent H183/L072
T1 construct: entry includes C-terminal His-tag and biotin acceptor peptide; also called human CD137 extracellular domain; 4-1BB
T1 sequence (chain, as listed by the source limits assumed): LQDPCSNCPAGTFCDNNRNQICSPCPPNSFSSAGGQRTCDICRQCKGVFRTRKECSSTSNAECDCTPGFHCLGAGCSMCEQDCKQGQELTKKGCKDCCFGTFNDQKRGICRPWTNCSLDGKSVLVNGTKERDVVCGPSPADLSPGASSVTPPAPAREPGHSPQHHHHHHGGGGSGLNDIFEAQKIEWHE

| fold change of affinity [fold] | Binder |
| --- | --- |
| 1.2 | B1 |
| 0.4 | B2 |
| 0.1 | B3 |
| 0.4 | B4 |
| 0.2 | B5 |
| 0.9 | B6 |
| 0.4 | B7 |
| 0.5 | B8 |
| 0.3 | B9 |
| 0.4 | B10 |
| 0.5 | B11 |
| 0.4 | B12 |
| 0.4 | B13 |
| 1 | B14 |
| 0.1 | B15 |
| 0.1 | B16 |
| 0.5 | B17 |
| 0 | B18 |
